From patent US12478674 (dated 2025)
Several values for one entry are separate records, joined by “and”; a condition that tells them apart may be missing. Equal entries are not always repeated.

Legend:
[1] = biological target: human CTLA-4 (human); experiment: SPR, pH 7.4, 37C
[2] = biological target: human CTLA-4 (human); experiment: SPR, pH 6.0, 37C
[3] = biological target: human CTLA-4 (human); experiment: SPR, pH 6.0, 37C; remark: listed apart in the source
[4] = biological target: human CTLA-4 (human); experiment: FACS, pH 6.0
[5] = biological target: human CTLA-4 (human); experiment: SPR, pH 6.0, 37C; remark: listed apart in the source
[6] = biological target: human CTLA-4 (human); experiment: FACS, pH 7.3
[7] = biological target: human CTLA-4 (human); experiment: SPR, pH 7.4, 37C; remark: listed apart in the source
[8] = biological target: human CTLA-4 (human); experiment: SPR, pH 7.4, 37C; remark: listed apart in the source
[9] = biological target: human CTLA-4 (human); experiment: FACS, pH 6.7, bivalent
[10] = biological target: human CTLA-4 (human); experiment: FACS, pH 7.2, bivalent
[11] = biological target: human CTLA-4 (human); experiment: FACS, pH 6.2, bivalent

Chain of human CTLA-4 (human) (chain, as listed by the source): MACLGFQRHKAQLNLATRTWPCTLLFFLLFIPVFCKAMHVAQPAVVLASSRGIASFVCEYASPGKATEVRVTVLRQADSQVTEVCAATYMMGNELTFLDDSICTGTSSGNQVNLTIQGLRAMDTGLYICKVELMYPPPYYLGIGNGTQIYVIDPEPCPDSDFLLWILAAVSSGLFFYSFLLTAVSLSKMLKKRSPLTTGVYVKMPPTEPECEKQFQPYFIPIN

| EC50 [9] [nM] | EC50 [10] [nM] | EC50 [11] [nM] | Binder | further results |
| --- | --- | --- | --- | --- |
| 2.35 | 1.84 | 2.76 | ipilimumab IgG1 (antibody, V domains shown) VH: QVQLVESGGGVVQPGRSLRLSCAASGFTFSSYTMHWVRQAPGKGLEWVTFISYDGNNKYYADSVKGRFTISRDNSKNTLYLQMNSLRAEDTAIYYCARTGWLGPFDYWGQGTLVTVSS VL: not shown | – |
| 2.97 | 3.1 | 2.93 | ipi.64 IgG1 (antibody, V domains shown) VH: QVQLVESGGGVVQPGRSLRLSCAASGFTFSHYTMHWVRQAPGKGLEWVTFISYDGNNKYYADSVKGRFTISRDNSKNTLYLQMNSLRAEDTAIYYCARTGWLGPFDYWGQGTLVTVSS VL: not shown | – |
| 4.06 | 3.81 | 3.52 | ipi.101 IgG1 (antibody, V domains shown) VH: QVQLVESGGGVVQPGRSLRLSCAASGFTFSHYTMHWVRQAPGKGLEWVTFISYDGHNKYYADSVKGRFTISRDNSKNTLYLQMNSLRAEDTAIYYCARTGWLGPFDYWGQGTLVTVSS VL: not shown | – |

More lines, now with the values behind:

| Binder | EC50 [9] [nM] | EC50 [10] [nM] | EC50 [11] [nM] | further results |
| --- | --- | --- | --- | --- |
| ipilimumab (ipi) Fab (antibody, V domains shown) VH: QVQLVESGGGVVQPGRSLRLSCAASGFTFSSYTMHWVRQAPGKGLEWVTFISYDGNNKYYADSVKGRFTISRDNSKNTLYLQMNSLRAEDTAIYYCARTGWLGPFDYWGQGTLVTVSS VL: not shown | – | – | – | Kd [1]: 22 nM; Kd [2]: 21 nM; Kd [3]: 21 nM; EC50 [4]: 7.1 nM; Kd [5]: 46 nM; EC50 [6]: 5.4 nM; Kd [7]: 22 nM and 14 nM; Kd [8]: 47 nM |
| ipi.64 Fab (antibody, V domains shown) VH: QVQLVESGGGVVQPGRSLRLSCAASGFTFSHYTMHWVRQAPGKGLEWVTFISYDGNNKYYADSVKGRFTISRDNSKNTLYLQMNSLRAEDTAIYYCARTGWLGPFDYWGQGTLVTVSS VL: not shown | – | – | – | EC50 [4]: 3.3 nM; EC50 [6]: 140 nM |
| ipi.106 IgG1 (antibody, V domains shown) VH: QVQLVESGGGVVQPGRSLRLSCAASGFTFSHYTMHWVRQAPGKGLEWVTFISYDGHNKYYADSVKGRFTISRDNSKNTLYLQMNSLRAEDTAIYYCARHGWLGPFDYWGQGTLVTVSS VL: EIVLTQSPGTLSLSPGERATLSCRASQEVGESELAWYQQKPGQAPRLLIYGAFSRATGIPDRFSGSGSGTDFTLTISRLEPEDFAVYYCQQYGSSPWTFGQGTKVEIKR | 4.37 | 11.5 | 3.15 | – |
| ipi.100 IgG1 (antibody, V domains shown) VH: QVQLVESGGGVVQPGRSLRLSCAASGFTFSHYTMHWVRQAPGKGLEWVTFISYDGNNKYYADSVKGRFTISRDNSKNTLYLQMNSLRAEDTAIYYCARTGWLGPFDYWGQGTLVTVSS VL: not shown | 2.85 | 2.8 | 2.94 | – |
| ipi.105 IgG1 (antibody, V domains shown) VH: QVQLVESGGGVVQPGRSLRLSCAASGFTFSHYTMHWVRQAPGKGLEWVTFISYDGHNKYYADSVKGRFTISRDNSKNTLYLQMNSLRAEDTAIYYCARTGWLGPFDYWGQGTLVTVSS VL: EIVLTQSPGTLSLSPGERATLSCRASQEVGESELAWYQQKPGQAPRLLIYGAFSRATGIPDRFSGSGSGTDFTLTISRLEPEDFAVYYCQQYGSSPWTFGQGTKVEIKR | 3.45 | 3.94 | 2.6 | – |
